T1: FcgRIIaR (human, UniProt P12318 34-217)
T1 construct: extracellular domain; also called FcγRIIa R type; FcγRIIa (R type)
T1 sequence (looked up): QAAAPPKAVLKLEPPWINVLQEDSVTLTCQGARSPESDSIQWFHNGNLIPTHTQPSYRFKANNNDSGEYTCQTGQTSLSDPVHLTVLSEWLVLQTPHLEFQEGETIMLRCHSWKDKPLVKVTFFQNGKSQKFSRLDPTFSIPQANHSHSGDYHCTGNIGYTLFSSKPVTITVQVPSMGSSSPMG

T2: FcgRIIb (human, UniProt P31994 43-217)
T2 construct: extracellular domain; also called FcγRIIb
T2 sequence (looked up): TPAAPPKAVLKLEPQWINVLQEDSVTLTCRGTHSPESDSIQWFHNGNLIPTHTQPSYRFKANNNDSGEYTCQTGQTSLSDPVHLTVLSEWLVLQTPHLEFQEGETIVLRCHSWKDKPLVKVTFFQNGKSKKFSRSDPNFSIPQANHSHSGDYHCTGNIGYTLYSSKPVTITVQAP


Key:
FcgRIIaR = target: T1, FcgRIIaR; experiment: SPR, amount bound per captured antibody
FcgRIIb = target: T2, FcgRIIb; experiment: SPR, amount bound per captured antibody
human complement C1q = target: T3, human complement C1q (human, UniProt P02745 23-245; P02746 28-253; P02747 29-245); experiment: SPR, C1q bound per antibody captured on Protein L
T3 construct: Bought (PROSPEC or Calbiochem); also called human C1q
Description: The interaction between an antibody and human C1q was analyzed using Biacore T200 (GE Healthcare). HBS-EP+ (GE Healthcare) was used as the running buffer, and the measurement temperature was set at 25° C. Chips produced by immobilizing Protein L (ACTIGEN or BioVision) onto Series S sensor Chip CM4 (GE Healthcare) by amine coupling were used.
The antibodies of interest were captured onto these sensor chips, and allowed to interact with human complement C1q (PROSPEC or Calbiochem) diluted in the running buffer. The amount of antibody binding was determined, and comparisons were made among the antibodies. However, since the amount of C1q bound depends on the amount of captured antibodies, corrected values obtained by dividing the amount of C1q bound by the amount of each antibody captured were compared. Furthermore, by reaction with 10 mM glycine-HCl, pH 1.5, the antibodies captured onto the sensor chips were washed, and the sensor chips were recycled and reused.

T3 sequence (P02745 23-245 limits assumed, chain 1 of 3): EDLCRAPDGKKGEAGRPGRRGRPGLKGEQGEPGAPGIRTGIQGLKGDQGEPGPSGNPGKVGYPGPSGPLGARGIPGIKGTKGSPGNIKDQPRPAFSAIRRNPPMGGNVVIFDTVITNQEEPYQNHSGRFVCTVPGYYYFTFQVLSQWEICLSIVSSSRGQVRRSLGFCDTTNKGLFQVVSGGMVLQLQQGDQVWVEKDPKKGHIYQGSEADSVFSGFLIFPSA
T3 sequence (P02746 28-253 limits assumed, chain 2 of 3): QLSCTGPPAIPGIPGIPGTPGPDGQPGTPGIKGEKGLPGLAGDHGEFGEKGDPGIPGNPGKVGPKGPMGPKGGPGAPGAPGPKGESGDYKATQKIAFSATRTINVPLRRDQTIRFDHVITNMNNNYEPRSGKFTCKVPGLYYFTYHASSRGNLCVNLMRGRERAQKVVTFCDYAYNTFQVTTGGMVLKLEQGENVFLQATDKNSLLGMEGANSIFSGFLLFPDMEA
T3 sequence (P02747 29-245 limits assumed, chain 3 of 3): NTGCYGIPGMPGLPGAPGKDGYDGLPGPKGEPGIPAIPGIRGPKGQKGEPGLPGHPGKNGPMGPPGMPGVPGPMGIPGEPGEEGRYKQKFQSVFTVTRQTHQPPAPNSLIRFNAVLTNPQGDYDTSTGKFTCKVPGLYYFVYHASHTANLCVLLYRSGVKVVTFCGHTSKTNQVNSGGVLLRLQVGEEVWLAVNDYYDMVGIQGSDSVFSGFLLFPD

| Binder | Relative FcgRIIaR-binding Activity (FcgRIIaR) [IL6R-G1d/IL6R-L=100] | Relative FcgRIIb-binding Activity (FcgRIIb) [IL6R-G1d/IL6R-L=100] | Amount of C1q-binding when that for G1d is Defined as 100 (human complement C1q) [G1d=100] |
| --- | --- | --- | --- |
| IL6R-P745/IL6R-L (antibody, human IgG1, kappa) heavy: QVQLQESGPGLVKPSETLSLTCAVSGHSISHDHAWSWVRQPPGEGLEWIGFISYSGITNYNPSLQGRVTISRDNSKNTLYLQMNSLRAEDTAVYYCARSLARTTAMDYWGEGTLVTVSSASTKGPSVFPLAPSSKSTSGGTAALGCLVKDYFPEPVTVSWNSGALTSGVHTFPAVLQSSGLYSLSSVVTVPSSSLGTQTYICNVNHKPSNTKVDKKVEPKSCDKTHTCPPCPAPELLGGDSVFLFPPKPKDTLMISRTPEVTCVVVDVSHEDPEVKFNWYVDGVEVHNAKTKPREEQYNATYRVVSVLTVLHQDWLNGKEYKCEVSNKALPAPIEKTISKAKGQPREPQVYTLPPSRDELTKNQVSLTCLVKGFYPSDIAVEWESNGQPENNYKTTPPVLDSDGSFFLYSKLTVDKSRWQQGNVFSCSVMHEALHNHYTQKSLSLSP light: not shown | 13.7 | 95.4 | 20.9 |
| IL6R-P747/IL6R-L (antibody, human IgG1, kappa) heavy: QVQLQESGPGLVKPSETLSLTCAVSGHSISHDHAWSWVRQPPGEGLEWIGFISYSGITNYNPSLQGRVTISRDNSKNTLYLQMNSLRAEDTAVYYCARSLARTTAMDYWGEGTLVTVSSASTKGPSVFPLAPSSKSTSGGTAALGCLVKDYFPEPVTVSWNSGALTSGVHTFPAVLQSSGLYSLSSVVTVPSSSLGTQTYICNVNHKPSNTKVDKKVEPKSCDKTHTCPPCPAPELFGQDSVMLFPPKPKDTLMISRTPEVTCVVVDVSHEDPEVKFNWYVDGVEVHNAKTKPREEQENSTYRVVSVLTVLHQDWLNGKEYKCEVSNKALPAPIEKTISKAKGQPREPQVYTLPPSRDELTKNQVSLTCLVKGFYPSDIAVEWESNGQPENNYKTTPPVLDSDGSFFLYSKLTVDKSRWQQGNVFSCSVMHEALHNHYTQKSLSLSP light: not shown | 10 | 98.1 | 13.7 |
| IL6R-P748/IL6R-L (antibody, human IgG1, kappa) heavy: QVQLQESGPGLVKPSETLSLTCAVSGHSISHDHAWSWVRQPPGEGLEWIGFISYSGITNYNPSLQGRVTISRDNSKNTLYLQMNSLRAEDTAVYYCARSLARTTAMDYWGEGTLVTVSSASTKGPSVFPLAPSSKSTSGGTAALGCLVKDYFPEPVTVSWNSGALTSGVHTFPAVLQSSGLYSLSSVVTVPSSSLGTQTYICNVNHKPSNTKVDKKVEPKSCDKTHTCPPCPAPELLGQDSVMLFPPKPKDTLMISRTPEVTCVVVDVSPEDPEVKFNWYVDGVEVHNAKTKPREEQENSTYRVVSVLTVLHQDWLNGKEYKCAVSNKALPHPIEKTISKAKGQPREPQVYTLPPSRDELTKNQVSLTCLVKGFYPSDIAVEWESNGQPENNYKTTPPVLDSDGSFFLYSKLTVDKSRWQQGNVFSCSVMHEALHNHYTQKSLSLSP light: not shown | 5.1 | 42.7 | 1.4 |
| IL6R-P746/IL6R-L (antibody, human IgG1, kappa) heavy: QVQLQESGPGLVKPSETLSLTCAVSGHSISHDHAWSWVRQPPGEGLEWIGFISYSGITNYNPSLQGRVTISRDNSKNTLYLQMNSLRAEDTAVYYCARSLARTTAMDYWGEGTLVTVSSASTKGPSVFPLAPSSKSTSGGTAALGCLVKDYFPEPVTVSWNSGALTSGVHTFPAVLQSSGLYSLSSVVTVPSSSLGTQTYICNVNHKPSNTKVDKKVEPKSCDKTHTCPPCPAPELFGQDSVMLFPPKPKDTLMISRTPEVTCVVVDVSHEDPEVKFNWYVDGVEVHNAKTKPREEQENSTYRVVSVLTVLHQDWLNGKEYKCAVSNKALPAPIEKTISKAKGQPREPQVYTLPPSRDELTKNQVSLTCLVKGFYPSDIAVEWESNGQPENNYKTTPPVLDSDGSFFLYSKLTVDKSRWQQGNVFSCSVMHEALHNHYTQKSLSLSP light: not shown | 7 | 57.5 | 1.4 |

The remaining lines, values ahead:

| Relative FcgRIIaR-binding Activity (FcgRIIaR) [IL6R-G1d/IL6R-L=100] | Relative FcgRIIb-binding Activity (FcgRIIb) [IL6R-G1d/IL6R-L=100] | Amount of C1q-binding when that for G1d is Defined as 100 (human complement C1q) [G1d=100] | Binder |
| --- | --- | --- | --- |
| 6.8 | 73.9 | 13.8 | IL6R-P749/IL6R-L (antibody, human IgG1, kappa) heavy: QVQLQESGPGLVKPSETLSLTCAVSGHSISHDHAWSWVRQPPGEGLEWIGFISYSGITNYNPSLQGRVTISRDNSKNTLYLQMNSLRAEDTAVYYCARSLARTTAMDYWGEGTLVTVSSASTKGPSVFPLAPSSKSTSGGTAALGCLVKDYFPEPVTVSWNSGALTSGVHTFPAVLQSSGLYSLSSVVTVPSSSLGTQTYICNVNHKPSNTKVDKKVEPKSCDKTHTCPPCPAPELLGQDSVMLFPPKPKDTLMISRTPEVTCVVVDVSPEDPEVKFNWYVDGVEVHNAKTKPREEQENSTYRVVSVLTVLHQDWLNGKEYKCEVSNKALPHPIEKTISKAKGQPREPQVYTLPPSRDELTKNQVSLTCLVKGFYPSDIAVEWESNGQPENNYKTTPPVLDSDGSFFLYSKLTVDKSRWQQGNVFSCSVMHEALHNHYTQKSLSLSP light: not shown |
| 7.2 | 62.9 | 1.1 | IL6R-P752/IL6R-L (antibody, human IgG1, kappa) heavy: QVQLQESGPGLVKPSETLSLTCAVSGHSISHDHAWSWVRQPPGEGLEWIGFISYSGITNYNPSLQGRVTISRDNSKNTLYLQMNSLRAEDTAVYYCARSLARTTAMDYWGEGTLVTVSSASTKGPSVFPLAPSSKSTSGGTAALGCLVKDYFPEPVTVSWNSGALTSGVHTFPAVLQSSGLYSLSSVVTVPSSSLGTQTYICNVNHKPSNTKVDKKVEPKSCDKTHTCPPCPAPELFGQDSVMLFPPKPKDTLMISRTPEVTCVVVDVSPEDPEVKFNWYVDGVEVHNAKTKPREEQENSTYRVVSVLTVLHQDWLNGKEYKCAVHNKALPAPIEKTISKAKGQPREPQVYTLPPSRDELTKNQVSLTCLVKGFYPSDIAVEWESNGQPENNYKTTPPVLDSDGSFFLYSKLTVDKSRWQQGNVFSCSVMHEALHNHYTQKSLSLSP light: not shown |
| 10.4 | 103 | 14 | IL6R-P753/IL6R-L (antibody, human IgG1, kappa) heavy: QVQLQESGPGLVKPSETLSLTCAVSGHSISHDHAWSWVRQPPGEGLEWIGFISYSGITNYNPSLQGRVTISRDNSKNTLYLQMNSLRAEDTAVYYCARSLARTTAMDYWGEGTLVTVSSASTKGPSVFPLAPSSKSTSGGTAALGCLVKDYFPEPVTVSWNSGALTSGVHTFPAVLQSSGLYSLSSVVTVPSSSLGTQTYICNVNHKPSNTKVDKKVEPKSCDKTHTCPPCPAPELFGQDSVMLFPPKPKDTLMISRTPEVTCVVVDVSPEDPEVKFNWYVDGVEVHNAKTKPREEQENSTYRVVSVLTVLHQDWLNGKEYKCEVHNKALPAPIEKTISKAKGQPREPQVYTLPPSRDELTKNQVSLTCLVKGFYPSDIAVEWESNGQPENNYKTTPPVLDSDGSFFLYSKLTVDKSRWQQGNVFSCSVMHEALHNHYTQKSLSLSP light: not shown |
| 7.4 | 72.5 | 13.9 | IL6R-P751/IL6R-L (antibody, human IgG1, kappa) heavy: QVQLQESGPGLVKPSETLSLTCAVSGHSISHDHAWSWVRQPPGEGLEWIGFISYSGITNYNPSLQGRVTISRDNSKNTLYLQMNSLRAEDTAVYYCARSLARTTAMDYWGEGTLVTVSSASTKGPSVFPLAPSSKSTSGGTAALGCLVKDYFPEPVTVSWNSGALTSGVHTFPAVLQSSGLYSLSSVVTVPSSSLGTQTYICNVNHKPSNTKVDKKVEPKSCDKTHTCPPCPAPELFGQDSVMLFPPKPKDTLMISRTPEVTCVVVDVSPEDPEVKFNWYVDGVEVHNAKTKPREEQENSTYRVVSVLTVLHQDWLNGKEYKCEVSNKALPAPIEKTISKAKGQPREPQVYTLPPSRDELTKNQVSLTCLVKGFYPSDIAVEWESNGQPENNYKTTPPVLDSDGSFFLYSKLTVDKSRWQQGNVFSCSVMHEALHNHYTQKSLSLSP light: not shown |
| 6.1 | 48.1 | 1.2 | IL6R-P750/IL6R-L (antibody, human IgG1, kappa) heavy: QVQLQESGPGLVKPSETLSLTCAVSGHSISHDHAWSWVRQPPGEGLEWIGFISYSGITNYNPSLQGRVTISRDNSKNTLYLQMNSLRAEDTAVYYCARSLARTTAMDYWGEGTLVTVSSASTKGPSVFPLAPSSKSTSGGTAALGCLVKDYFPEPVTVSWNSGALTSGVHTFPAVLQSSGLYSLSSVVTVPSSSLGTQTYICNVNHKPSNTKVDKKVEPKSCDKTHTCPPCPAPELFGQDSVMLFPPKPKDTLMISRTPEVTCVVVDVSPEDPEVKFNWYVDGVEVHNAKTKPREEQENSTYRVVSVLTVLHQDWLNGKEYKCAVSNKALPAPIEKTISKAKGQPREPQVYTLPPSRDELTKNQVSLTCLVKGFYPSDIAVEWESNGQPENNYKTTPPVLDSDGSFFLYSKLTVDKSRWQQGNVFSCSVMHEALHNHYTQKSLSLSP light: not shown |
